Experimental data published in patent publication US20220315554A1, “COMPOUNDS COMPRISING A […] LIGAND AND USE THEREOF” (priority 2019, published 2022).

Experiments:
[1] = molecular target: Matrix metalloprotease 9 (mutant Q279R) (Homo sapiens (Human)) (UniProt P14780)
[2] = molecular target: Cathepsin S (Homo sapiens (Human)) (UniProt P25774)
[3] = molecular target: T1, Ubiquitin carboxy-terminal hydrolase 2 (Homo sapiens (Human)) (UniProt O75604)
T1 sequence: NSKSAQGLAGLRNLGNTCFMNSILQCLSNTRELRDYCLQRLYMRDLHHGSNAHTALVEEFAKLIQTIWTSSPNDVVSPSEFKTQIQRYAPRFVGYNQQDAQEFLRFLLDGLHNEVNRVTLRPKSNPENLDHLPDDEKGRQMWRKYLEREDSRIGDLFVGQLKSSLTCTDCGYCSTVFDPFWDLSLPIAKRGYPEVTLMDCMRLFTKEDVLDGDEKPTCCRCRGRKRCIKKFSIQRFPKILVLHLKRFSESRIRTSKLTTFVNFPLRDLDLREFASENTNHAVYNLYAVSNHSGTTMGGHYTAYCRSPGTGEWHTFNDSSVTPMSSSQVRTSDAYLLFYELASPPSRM

[4] = molecular target: Matrix metalloprotease1 (Homo sapiens (Human)) (UniProt P03956)
Sequence of Matrix metalloprotease1 (Homo sapiens (Human)) (P03956 100-469): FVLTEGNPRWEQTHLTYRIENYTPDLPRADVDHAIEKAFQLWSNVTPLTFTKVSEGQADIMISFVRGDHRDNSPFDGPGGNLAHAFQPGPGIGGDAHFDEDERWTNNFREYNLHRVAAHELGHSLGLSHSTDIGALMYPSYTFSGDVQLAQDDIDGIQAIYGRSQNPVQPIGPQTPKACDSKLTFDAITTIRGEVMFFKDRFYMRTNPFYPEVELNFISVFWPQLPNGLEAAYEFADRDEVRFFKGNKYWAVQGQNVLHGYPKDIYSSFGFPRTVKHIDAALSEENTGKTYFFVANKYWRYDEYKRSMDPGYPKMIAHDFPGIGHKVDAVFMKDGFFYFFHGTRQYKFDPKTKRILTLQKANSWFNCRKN

[5] = molecular target: Caspase-9 (Homo sapiens (Human)) (UniProt P55211)
Sequence of Caspase-9 (Homo sapiens (Human)) (P55211 whole entry): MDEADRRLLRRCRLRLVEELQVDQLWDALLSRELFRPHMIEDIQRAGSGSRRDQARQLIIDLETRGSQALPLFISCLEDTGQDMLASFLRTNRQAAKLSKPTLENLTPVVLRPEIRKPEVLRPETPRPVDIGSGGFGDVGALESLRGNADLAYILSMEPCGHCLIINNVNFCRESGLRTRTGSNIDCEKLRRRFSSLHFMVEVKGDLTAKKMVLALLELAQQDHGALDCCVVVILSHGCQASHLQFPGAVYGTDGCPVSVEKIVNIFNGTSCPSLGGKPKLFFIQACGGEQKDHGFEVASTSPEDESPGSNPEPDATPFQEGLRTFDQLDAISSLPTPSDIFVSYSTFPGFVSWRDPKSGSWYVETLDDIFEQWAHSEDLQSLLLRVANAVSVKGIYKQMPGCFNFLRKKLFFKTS

[6] = molecular target: Ubiquitin carboxy-terminal hydrolase 14 (Homo sapiens (Human)) (UniProt P54578)
[7] = molecular target: T2, Caspase-6 (Homo sapiens (Human)) (UniProt P55212)
T2 sequence: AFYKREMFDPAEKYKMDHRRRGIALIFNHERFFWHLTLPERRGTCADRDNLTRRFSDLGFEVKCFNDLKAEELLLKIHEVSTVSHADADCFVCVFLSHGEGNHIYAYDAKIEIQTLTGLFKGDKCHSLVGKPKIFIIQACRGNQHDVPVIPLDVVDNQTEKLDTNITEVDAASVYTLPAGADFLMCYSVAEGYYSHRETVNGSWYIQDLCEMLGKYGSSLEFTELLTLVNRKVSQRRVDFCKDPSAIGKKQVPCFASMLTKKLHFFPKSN

[8] = molecular target: Ubiquitin carboxy-terminal hydrolase L1 (Homo sapiens (Human)) (UniProt P09936)
[9] = molecular target: Ubiquitin carboxy-terminal hydrolase 5 (Homo sapiens (Human)) (UniProt P45974)
Sequence of Ubiquitin carboxy-terminal hydrolase 5 (Homo sapiens (Human)) (P45974 whole entry): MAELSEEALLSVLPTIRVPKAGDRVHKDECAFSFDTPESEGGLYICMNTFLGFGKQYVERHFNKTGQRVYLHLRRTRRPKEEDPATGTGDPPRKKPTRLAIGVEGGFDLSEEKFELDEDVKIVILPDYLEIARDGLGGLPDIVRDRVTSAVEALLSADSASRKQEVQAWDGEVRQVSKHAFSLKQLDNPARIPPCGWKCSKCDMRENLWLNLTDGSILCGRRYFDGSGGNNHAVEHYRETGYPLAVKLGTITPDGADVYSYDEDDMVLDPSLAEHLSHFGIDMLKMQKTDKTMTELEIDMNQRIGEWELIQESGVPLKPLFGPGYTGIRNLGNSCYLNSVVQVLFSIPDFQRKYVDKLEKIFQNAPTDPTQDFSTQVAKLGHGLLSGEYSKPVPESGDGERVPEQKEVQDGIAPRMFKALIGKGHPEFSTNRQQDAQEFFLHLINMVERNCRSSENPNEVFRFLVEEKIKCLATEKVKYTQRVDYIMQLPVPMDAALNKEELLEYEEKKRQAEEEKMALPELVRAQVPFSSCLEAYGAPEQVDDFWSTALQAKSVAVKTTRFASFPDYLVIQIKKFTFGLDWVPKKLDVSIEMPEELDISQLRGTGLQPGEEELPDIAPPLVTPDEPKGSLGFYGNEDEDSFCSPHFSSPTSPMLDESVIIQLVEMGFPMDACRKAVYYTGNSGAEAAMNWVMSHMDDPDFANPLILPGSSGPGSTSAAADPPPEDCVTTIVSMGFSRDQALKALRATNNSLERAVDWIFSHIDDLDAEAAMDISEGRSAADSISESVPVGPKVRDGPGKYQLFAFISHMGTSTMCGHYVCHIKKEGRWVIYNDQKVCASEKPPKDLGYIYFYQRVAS

[10] = molecular target: T3, Recombinant human FAP (R&D systems, #3715-SE) (human)
T3 sequence: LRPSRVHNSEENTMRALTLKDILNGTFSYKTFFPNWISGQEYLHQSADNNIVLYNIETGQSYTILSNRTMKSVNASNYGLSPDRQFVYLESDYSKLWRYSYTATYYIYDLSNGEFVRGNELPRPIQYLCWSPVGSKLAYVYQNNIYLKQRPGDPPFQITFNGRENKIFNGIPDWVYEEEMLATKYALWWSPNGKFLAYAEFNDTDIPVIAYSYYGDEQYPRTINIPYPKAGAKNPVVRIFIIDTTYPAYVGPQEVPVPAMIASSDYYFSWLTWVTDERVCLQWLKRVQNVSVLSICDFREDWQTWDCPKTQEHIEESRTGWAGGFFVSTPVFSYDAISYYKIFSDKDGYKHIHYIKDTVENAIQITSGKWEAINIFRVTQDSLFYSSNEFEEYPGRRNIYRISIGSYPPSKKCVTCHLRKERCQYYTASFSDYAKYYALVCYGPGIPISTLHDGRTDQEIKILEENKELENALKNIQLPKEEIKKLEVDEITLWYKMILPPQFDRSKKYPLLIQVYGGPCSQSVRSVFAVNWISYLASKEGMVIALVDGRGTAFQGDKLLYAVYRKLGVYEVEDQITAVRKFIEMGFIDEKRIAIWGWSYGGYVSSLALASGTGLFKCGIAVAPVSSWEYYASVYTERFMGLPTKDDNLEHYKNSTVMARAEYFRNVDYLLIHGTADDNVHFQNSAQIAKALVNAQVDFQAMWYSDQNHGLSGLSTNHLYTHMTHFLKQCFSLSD

[11] = molecular target: T4, DPP3 (Homo sapiens (Human)) (UniProt Q9NY33)
T4 sequence: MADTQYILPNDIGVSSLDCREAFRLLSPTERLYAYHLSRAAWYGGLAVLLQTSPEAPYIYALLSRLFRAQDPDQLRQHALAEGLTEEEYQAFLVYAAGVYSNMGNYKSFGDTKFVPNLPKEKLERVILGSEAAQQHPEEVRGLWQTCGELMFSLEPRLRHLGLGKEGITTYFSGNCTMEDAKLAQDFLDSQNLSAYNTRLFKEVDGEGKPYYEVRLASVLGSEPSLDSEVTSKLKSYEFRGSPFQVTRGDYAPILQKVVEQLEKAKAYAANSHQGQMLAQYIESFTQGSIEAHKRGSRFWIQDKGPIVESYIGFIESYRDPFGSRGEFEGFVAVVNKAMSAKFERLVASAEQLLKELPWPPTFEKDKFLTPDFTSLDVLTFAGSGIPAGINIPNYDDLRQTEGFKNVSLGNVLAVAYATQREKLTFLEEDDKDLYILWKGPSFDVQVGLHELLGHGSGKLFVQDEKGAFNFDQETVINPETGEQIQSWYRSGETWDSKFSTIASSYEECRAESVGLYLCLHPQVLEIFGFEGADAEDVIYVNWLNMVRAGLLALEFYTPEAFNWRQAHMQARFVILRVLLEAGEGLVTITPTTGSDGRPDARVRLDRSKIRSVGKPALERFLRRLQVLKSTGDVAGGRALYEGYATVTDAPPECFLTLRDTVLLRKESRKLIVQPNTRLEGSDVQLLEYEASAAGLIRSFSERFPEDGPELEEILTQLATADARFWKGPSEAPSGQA

| Substance | Percentage inhibition (%) at 10 µM [1] [%] | Percentage inhibition (%) at 10 µM [2] [%] | Percentage inhibition (%) at 10 µM [3] [%] | Percentage inhibition (%) at 10 µM [4] [%] | Percentage inhibition (%) at 10 µM [5] [%] | Percentage inhibition (%) at 10 µM [6] [%] | Percentage inhibition (%) at 10 µM [7] [%] | Percentage inhibition (%) at 10 µM [8] [%] | Percentage inhibition (%) at 10 µM [9] [%] | pIC50 Category (Activity) [10] [pIC50] | Percentage inhibition (%) at 10 µM [11] [%] |
| --- | --- | --- | --- | --- | --- | --- | --- | --- | --- | --- | --- |
| Hex-[Cys(tMeBn(DOTA-PP))-Pro-Pro-Thr-Gln-Phe-Cys]-Asp-NH2 (peptide) | 2 | 18 | 7 | 2 | 8 | 5 | -1 | 4 | 46 | > 8 | – |
| Hex-[Cys(tMeBn(DOTA-AET))-Pro-Pro-Thr-Gln-Phe-Cys]-OH (peptide) | 2 | -23 | -1 | -7 | -2 | 2 | -3 | 4 | -2 | – | -1 |
